{"source": "paper PMC3855764", "about": "“Oct4/Sox2 Binding Sites Contribute to Maintaining Hypomethylation of the Maternal Igf2/H19 Imprinting Control Region”", "binders": {"B1": {"name": "ICR SoxC (dsDNA)", "DNA 1": "GCTCAGGGCTGCAAACAATTCTGAAACTGCATTCTC", "DNA 2": "GAGAATGCAGTTTCAGAATTGTTTGCAGCCCTGAGC"}, "B2": {"name": "ICR Sox-OctB (dsDNA)", "DNA 1": "TTGGGGCGTTCAGATGCTAATGATCTCCGGCT", "DNA 2": "AGCCGGAGATCATTAGCATCTGAACGCCCCAA"}, "B3": {"name": "mSA (Sox mutant Sox-OctA) (dsDNA)", "DNA 1": "CTAAGCGCTACGTCCTAGGTATTCTAATTGGGGAC", "DNA 2": "GTCCCCAATTAGAATACCTAGGACGTAGCGCTTAG"}, "B4": {"name": "mSB (Sox mutant Sox-OctB) (dsDNA)", "DNA 1": "TTGGGGAACGAAGATGCTAATGATCTCCGGCT", "DNA 2": "AGCCGGAGATCATTAGCATCTTCGTTCCCCAA"}, "B5": {"name": "ICR Sox-OctA (dsDNA)", "DNA 1": "CTGGTGATTTGCGCTTTCGTATTCTAATTGGGGAC", "DNA 2": "GTCCCCAATTAGAATACGAAAGCGCAAATCACCAG"}}, "settings_in_all_cases": "protein: recombinant", "key": {"Sox2 (recombinant) [1]": {"biological_target": "T1, Sox2 (recombinant) (UniProt P48432 1-319)", "T1 sequence (P48432 whole entry)": "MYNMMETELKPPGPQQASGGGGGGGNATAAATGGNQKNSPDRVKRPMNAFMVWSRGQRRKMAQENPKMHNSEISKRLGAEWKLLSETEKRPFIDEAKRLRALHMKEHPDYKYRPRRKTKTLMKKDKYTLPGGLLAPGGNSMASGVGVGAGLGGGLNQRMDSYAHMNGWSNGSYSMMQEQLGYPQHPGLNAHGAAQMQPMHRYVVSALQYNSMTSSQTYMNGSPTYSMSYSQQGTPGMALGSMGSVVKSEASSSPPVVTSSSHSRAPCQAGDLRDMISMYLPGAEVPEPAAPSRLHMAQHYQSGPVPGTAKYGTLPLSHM", "assay": "EMSA; 10 mM Tris pH 8.0, 2 mM MgCl (so in the source), 100 mM KCl, 1.25 mM DTT, 5% glycerol, 0.0625% BSA, 19 ug/ml dGdC, 25 fmol probe in 16 ul, 10 min room temperature; 4% PAGE 0.25X TBE"}, "Oct4 (recombinant) [2]": {"biological_target": "T2, Oct4 (recombinant) (UniProt P20263 1-352)", "T2 sequence (P20263 whole entry)": "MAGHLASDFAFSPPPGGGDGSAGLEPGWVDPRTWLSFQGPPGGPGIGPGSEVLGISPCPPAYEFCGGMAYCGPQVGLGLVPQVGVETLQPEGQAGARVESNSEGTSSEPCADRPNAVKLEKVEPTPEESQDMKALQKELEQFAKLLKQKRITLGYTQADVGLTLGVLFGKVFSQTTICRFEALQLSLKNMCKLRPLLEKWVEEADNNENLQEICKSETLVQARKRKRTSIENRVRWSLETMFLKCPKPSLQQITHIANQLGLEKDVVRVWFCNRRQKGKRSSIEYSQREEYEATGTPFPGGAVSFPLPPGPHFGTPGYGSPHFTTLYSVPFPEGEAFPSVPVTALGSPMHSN", "assay": "EMSA; bound both elements equally well; 10 mM Tris pH 8.0, 2 mM MgCl (so in the source), 100 mM KCl, 1.25 mM DTT, 5% glycerol, 0.0625% BSA, 19 ug/ml dGdC, 25 fmol probe in 16 ul, 10 min room temperature; 4% PAGE 0.25X TBE"}, "Sox2 (recombinant) [3]": {"biological_target": "T1, Sox2 (recombinant)", "assay": "EMSA; almost equal to WT; likely via octamer; 10 mM Tris pH 8.0, 2 mM MgCl (so in the source), 100 mM KCl, 1.25 mM DTT, 5% glycerol, 0.0625% BSA, 19 ug/ml dGdC, 25 fmol probe in 16 ul, 10 min room temperature; 4% PAGE 0.25X TBE"}, "Oct4 (recombinant) [4]": {"biological_target": "T2, Oct4 (recombinant)", "assay": "EMSA; Oct4 binding not altered by Sox mutation; 10 mM Tris pH 8.0, 2 mM MgCl (so in the source), 100 mM KCl, 1.25 mM DTT, 5% glycerol, 0.0625% BSA, 19 ug/ml dGdC, 25 fmol probe in 16 ul, 10 min room temperature; 4% PAGE 0.25X TBE"}, "Sox2 (recombinant) [5]": {"biological_target": "T1, Sox2 (recombinant)", "assay": "EMSA; Sox2 alone; 10 mM Tris pH 8.0, 2 mM MgCl (so in the source), 100 mM KCl, 1.25 mM DTT, 5% glycerol, 0.0625% BSA, 19 ug/ml dGdC, 25 fmol probe in 16 ul, 10 min room temperature; 4% PAGE 0.25X TBE"}}, "data": [{"binder": "B1", "values": [{"measurement": "binding result", "setting": "Sox2 (recombinant) [1]", "result": "binds"}]}, {"binder": "B2", "values": [{"measurement": "binding result", "setting": "Oct4 (recombinant) [2]", "result": "binds"}]}, {"binder": "B3", "values": [{"measurement": "binding result", "setting": "Sox2 (recombinant) [3]", "result": "binds"}, {"measurement": "binding result", "setting": "Oct4 (recombinant) [4]", "result": "binds"}]}, {"binder": "B4", "values": [{"measurement": "binding result", "setting": "Oct4 (recombinant) [4]", "result": "binds"}]}, {"binder": "B5", "values": [{"measurement": "binding result", "setting": "Sox2 (recombinant) [5]", "result": "binds"}, {"measurement": "binding result", "setting": "Oct4 (recombinant) [2]", "result": "binds"}]}]}
